{"source": "paper PMC11480844", "about": "(2024); note: test concentration or dose not given here", "parents": {"B1": {"name": "H2-Kb / Ed10 (parent complex)", "chain 1": "GEQVEQRPPHLSVREGDSAFIICTYTDSATAYFYWYKQEPGAGLQLLMSVFSNVDRKEEQGLTVLLNKKDKRLSLNLTAAHPGDSAVYFCAVRGTGYQNFYFGKGTSLTVIP", "chain 2": "AQTIHQWPVAEIKAVGSPLSLGCTIKGKSSPNLYWYWQATGGTLQQLFYSITVGQVESVVQLNLSASRPKDDQFILSTEKLLLSHSGFYLCAWSPGYEQYFGPGTRLTVL", "chain 3": "not shown", "chain 4": "IQKTPQIQVYSRHPPENGKPNILNCYVTQFHPPHIEIQMLKNGKKIPKVEMSDMSFSKDWSFYILAHTEFTPTETDTYACRVKHDSMAEPKTVYWDRDM", "chain 5": "SIINFEKL"}, "B2": {"name": "H2-Kb / Ed16-1 (parent complex)", "chain 1": "GEQVEQRPPHLSVREGDSAVITCTYTDPNSYYFFWYKQEPGASLQLLMKVFSSTEINEGQGFTVLLNKKDKRLSLNLTAAHPGDSAAYFCAVSGSNNRIFFGDGTQLVVKP", "chain 2": "EAAVTQSPRSKVAVTGGKVTLSCHQTNNHDYMYWYRQDTGHGLRLIHYSYVADSTEKGDIPDGYKASRPSQENFSLILELASLSQTAVYFCASRTGTDYTFGSGTRLLVI", "chain 3": "not shown", "chain 4": "B1 chain 4", "chain 5": "SIINFEKL"}}, "data": [{"variants_of": "B1", "assay": "% of reporter cells activated (NFAT-GFP), raw", "values": [{"variant": "chain 5 I3W", "ratio to parent": 0.739}, {"variant": "chain 5 I3M", "ratio to parent": 0.913}, {"variant": "chain 5 I3C", "ratio to parent": 0.914}, {"variant": "chain 5 I3R", "ratio to parent": 0.631}, {"variant": "chain 5 I3P", "ratio to parent": 0.933}, {"variant": "chain 5 I3L", "ratio to parent": 0.972}, {"variant": "chain 5 I3S", "ratio to parent": 0.873}, {"variant": "chain 5 I3G", "ratio to parent": 0.724}, {"variant": "chain 5 I3F", "ratio to parent": 0.713}, {"variant": "chain 5 L8H", "ratio to parent": 0.916}, {"variant": "chain 5 L8W", "ratio to parent": 0.702}, {"variant": "chain 5 L8A", "ratio to parent": 0.858}, {"variant": "chain 5 L8N", "ratio to parent": 0.862}, {"variant": "chain 5 L8P", "ratio to parent": 0.885}, {"variant": "chain 5 L8V", "ratio to parent": 0.721}, {"variant": "chain 5 L8Y", "ratio to parent": 0.956}, {"variant": "chain 5 L8M", "ratio to parent": 0.813}, {"variant": "chain 5 L8S", "ratio to parent": 0.74}, {"variant": "chain 5 L8E", "ratio to parent": 0.721}, {"variant": "chain 5 N4I", "ratio to parent": 0.0807}, {"variant": "chain 5 N4R", "ratio to parent": 0.104}, {"variant": "chain 5 N4F", "ratio to parent": 0.0998}, {"variant": "chain 5 N4T", "ratio to parent": 0.0278}, {"variant": "chain 5 N4M", "ratio to parent": 0.127}, {"variant": "chain 5 N4S", "ratio to parent": 0.33}, {"variant": "chain 5 N4E", "ratio to parent": 0.178}, {"variant": "chain 5 N4H", "ratio to parent": 0.777}, {"variant": "chain 5 N4D", "ratio to parent": 0.847}, {"variant": "chain 5 N4Q", "ratio to parent": 0.189}, {"variant": "chain 5 N4W", "ratio to parent": 0.424}, {"variant": "chain 5 N4C", "ratio to parent": 0.13}, {"variant": "chain 5 N4P", "ratio to parent": 0.551}, {"variant": "chain 5 S1M", "ratio to parent": 1.02}, {"variant": "chain 5 S1C", "ratio to parent": 0.759}, {"variant": "chain 5 S1I", "ratio to parent": 0.814}, {"variant": "chain 5 S1G", "ratio to parent": 0.978}, {"variant": "chain 5 S1E", "ratio to parent": 0.888}, {"variant": "chain 5 S1N", "ratio to parent": 0.524}, {"variant": "chain 5 S1V", "ratio to parent": 0.913}, {"variant": "chain 5 S1P", "ratio to parent": 0.946}, {"variant": "chain 5 S1K", "ratio to parent": 0.841}, {"variant": "chain 5 K7E", "ratio to parent": 0.00697}, {"variant": "chain 5 K7Y", "ratio to parent": 0.402}, {"variant": "chain 5 K7Q", "ratio to parent": 0.0405}, {"variant": "chain 5 K7N", "ratio to parent": 0.726}, {"variant": "chain 5 K7H", "ratio to parent": 0.183}, {"variant": "chain 5 K7R", "ratio to parent": 0.668}, {"variant": "chain 5 K7S", "ratio to parent": 0.744}, {"variant": "chain 5 I2D", "ratio to parent": 0.977}, {"variant": "chain 5 I2Q", "ratio to parent": 0.914}, {"variant": "chain 5 I2F", "ratio to parent": 0.941}, {"variant": "chain 5 I2M", "ratio to parent": 0.933}, {"variant": "chain 5 I2L", "ratio to parent": 0.955}, {"variant": "chain 5 I2E", "ratio to parent": 0.966}, {"variant": "chain 5 I2K", "ratio to parent": 0.876}, {"variant": "chain 5 I2S", "ratio to parent": 0.988}, {"variant": "chain 5 I2A", "ratio to parent": 1.02}, {"variant": "chain 5 I2N", "ratio to parent": 0.841}, {"variant": "chain 5 I2R", "ratio to parent": 0.712}, {"variant": "chain 5 F5T", "ratio to parent": 0.758}, {"variant": "chain 5 F5L", "ratio to parent": 0.925}, {"variant": "chain 5 F5D", "ratio to parent": 0.897}, {"variant": "chain 5 F5K", "ratio to parent": 0.688}, {"variant": "chain 5 F5A", "ratio to parent": 0.912}, {"variant": "chain 5 F5W", "ratio to parent": 0.659}, {"variant": "chain 5 F5P", "ratio to parent": 0.437}, {"variant": "chain 5 F5C", "ratio to parent": 0.857}, {"variant": "chain 5 E6I", "ratio to parent": 0.00258}, {"variant": "chain 5 E6M", "ratio to parent": 0.384}, {"variant": "chain 5 E6Q", "ratio to parent": 0.19}, {"variant": "chain 5 E6V", "ratio to parent": 0.00689}, {"variant": "chain 5 E6L", "ratio to parent": 0.0597}, {"variant": "chain 5 E6T", "ratio to parent": 0.0117}]}, {"variants_of": "B2", "assay": "% of reporter cells activated (NFAT-GFP), raw", "values": [{"variant": "chain 5 S1D", "ratio to parent": 0.0292}, {"variant": "chain 5 L8K", "ratio to parent": 0.951}]}]}
